Source: patent US20170247475A1 (Boehringer Ingelheim, published 2017)

Tests used:
[1] = target: T1, recombinant human VEGF165 (human, UniProt P15692-4 27-191); test: Biacore, periplasmic extract on hVEGF165 chip
T1 construct: also called hVEGF165; rhVEGF165
Description: (§1) Dissociation rates of inhibitory VHHs are analyzed on Biacore (Biacore T100 instrument, GE Healthcare). HBS-EP+ buffer is used as running buffer and experiments are performed at 25° C. […] After immobilization, surfaces are deactivated with 10 min injection of 1M ethanolamine pH8.5. A reference surface is activated and deactivated with respectively EDC/NHS and ethanolamine. Periplasmic extracts of VHHs are injected at a 10-fold dilution in running buffer for 2 min at 45 μl/min and allowed to dissociate for 10 or 15 min. Between different samples, the surfaces are regenerated with regeneration buffer. Data are double referenced by subtraction of the curves on the reference channel and of a blank running buffer injection. […] is evaluated by fitting a two phase decay model in the Biacore T100 Evaluation software v2.0.1.

[2] = target: T1, recombinant human VEGF165; test: Biacore, periplasmic extract on hVEGF165 chip, two phase decay fit
Description: as §1

[3] = target: T1, recombinant human VEGF165; test: VEGF165/VEGFR2 AlphaScreen

T1 sequence (P15692 other isoform, or with tags, fused parts or gaps limits assumed): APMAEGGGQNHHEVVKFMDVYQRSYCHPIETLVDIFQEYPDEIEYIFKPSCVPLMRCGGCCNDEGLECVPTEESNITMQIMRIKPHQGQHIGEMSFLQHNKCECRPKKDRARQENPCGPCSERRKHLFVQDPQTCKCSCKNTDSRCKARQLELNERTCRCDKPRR

B1: VEGFBII41G03 (VHH)
VHH: EVQLVESGGGLVQPGDSLKLSCAFSGRTFSSYSMAWFRQAQGKEREFVVAISSGGFIYDAVSLEGRFTISRENTKNTVYLQTPSLKPEDTAVYYCAASRAYGSSRLRLADTYDYWGQGTQVTVSS
notes: periplasmic extract
[1]
  Binding level (RU): 332 RU
[2]
  % fast: 20%

B2: VEGFBII61A01 (VHH)
VHH: EVQLVESGGGLVQAGGSLRLSCAFSGRTFSSYSMGWFRQAQGKEREFVVAISSGGYKYDAVSLEGRFTISRDNTKNTVYLQTPSLKPEDTAVYYCAASRAYASSRLRLADTYDYWGQGTQVTVSS
notes: periplasmic extract
[1]
  Binding level (RU): 275 RU
[2]
  % fast: 21%

B3: VEGFBII42F11 (VHH)
VHH: EVQLVESGGGLVQPGDSLKLSCVASGRTSSSYSVGWFRQAQGKEREFVVAISSGGYIYDSVSLQGRFTISRDNTKNTVYLQTPSLKPEDTAVYYCAASRAYGSSRLRLADTYDYWGQGTQVTVSS
notes: periplasmic extract
[1]
  Binding level (RU): 100 RU
[2]
  % fast: 46%

B4: VEGFBII62F02 (VHH)
VHH: EVQLVESGGGLVQPGDSLKLSCAFSGRTFSSYSMGWFRQAQGKEREFVVAIASGGYIYDAVSLEGRFTISRDNTKDTVYLQTPSLKPEDTAVYYCAASRAYGSSRLRLADTYDYWGQGTQVTVSS
notes: periplasmic extract
[1]
  Binding level (RU): 205 RU
[2]
  % fast: 21%

B5: VEGFBII22A10 (VHH)
VHH: EVQLVESGGGLVQPGDSLKLSCAFSGRTFSSYSMGWFRQAQGKEREFVVAISSSGGYIYDSVSLEGRFTISRDNTKNTVYLQTPSLKPEDTADYYCAASRAYGSSRLRLADTYDYWGQGTQVTVSS
notes: periplasmic extract
[1]
  Binding level (RU): 229 RU
[2]
  % fast: 19%

B6: VEGFBII40H10 (VHH)
VHH: EVQLMESGGGLVQPGDSLKLSCAFSGRTFSSYSMGWFRQAQGKEREFVVAISSSGGYIYDSVSLEGRFTISRDNTKNTVYLQTPSLKPEDTADYYCAASRAYGSSRLRLADTYDYWGQGTQVTVSS
notes: periplasmic extract
[1]
  Binding level (RU): 200 RU
[2]
  % fast: 17%

B7: VEGFBII39E02 (VHH)
VHH: EVQLVESGGGLVQPGDPLKLSCAFSGRTFSSYSMGWFRQAQGKEREFVVAISSSGGYIYDSVSLEGRFTISRDNTKNTVYLQTPSLKPEDTADYYCAASRAYGSSRLRLADTYDYWGQGTQVTVSS
notes: periplasmic extract
[1]
  Binding level (RU): 181 RU
[2]
  % fast: 13%

B8: VEGFBII23G03 (VHH)
VHH: EVQLVESGGGLVQPGDSLKLSCAFSGRTFGSYSMGWFRQAQGKEREFVVAISSSGGYIYDSVSLEGRFTISRDNSKNTVYLQTPSLKPEDTAVYYCAASRAYGSSRLRLPGTYDYWGQGTQVTVSS
notes: periplasmic extract
[1]
  Binding level (RU): 141 RU
[2]
  % fast: 28%

B9: VEGFBII42D05 (VHH)
VHH: EVQLVESGGGLVQPGDSLKLSCAFSGRTFSSYSMGWFRQAQGKEREFVVAISSSGGYIYDSVSLEGRFTISRDNTKNTVYLQTPSLKPEDTAVYYCAASRAYGSSRLRLADTYDYWGQGTQVTVSS
notes: periplasmic extract
[1]
  Binding level (RU): 77 RU
[2]
  % fast: 26%

B10: VEGFBII23A09 (VHH)
VHH: EVQLVESGGGLVQPGDSLKLSCAFSGRTFGSYSMGWFRQAQGKEREFVVAISSSGGYIYDSVSLEGRFTISRDNSKNTVYLQTPSLKPEDTAVYYCAASRAYGSSRLRLPDTYDYWGQGTQVTVSS
notes: periplasmic extract
[1]
  Binding level (RU): 247 RU
[2]
  % fast: 20%

B11: VEGFBII40G07 (VHH)
VHH: EVQLVESGGGLVQPGDSLKLSCAFSGRTFSSYSMGWFRQAQGKEREFVVAISSSGGYIYDSVSLEGRFTISRDNTKNAVYLQTPSLKPEDTADYYCAASRAYGSSRLRLADTYDYWGQGTQVTVSS
notes: periplasmic extract
[1]
  Binding level (RU): 139 RU
[2]
  % fast: 19%

B12: VEGFBII39G04 (VHH)
VHH: EVPLVESGGGLVQAGDSLRLSCAASGRTFSSYSMGWFRQAQGKEREFVVAISSSGNYKYDSASLEGRFTISRDNTKNTVYLQINSLKPEDTAVYYCAASRAYGSSRLRLGDTYDYWGQGTQVTVSS
notes: periplasmic extract
[1]
  Binding level (RU): 210 RU
[2]
  % fast: 40%

B13: VEGFBII31C07 (VHH)
VHH: EVQLVESGGGLVQTGDSLRLSCAASGGTFSSYSMGWFRQAQGKEREFVVAISSSGGYIYDSVSLEGRFTISRDNTKNTVYLQTPSLKPEDTADYYCAASRAYGSSRLRLADTYDYWGQGTQVTVSS
notes: periplasmic extract
[1]
  Binding level (RU): 77 RU
[2]
  % fast: 25%

B14: VEGFBII56E11 (VHH)
VHH: EVQLVESGGGLVQPGDSLKLSCAFSGRTFSSYSMGWFRQAQGKEREFVVAISSSGGYIYDSVSLEGRFTISRDNTKNTVYLQTPSLKPEDAADYYCAASRAYGSSRLRLADTYDYWGQGTQVTVSS
notes: periplasmic extract
[1]
  Binding level (RU): 76 RU
[2]
  % fast: 24%

B15: VEGFBII23F05 (VHH)
VHH: EVQLVESGGGLVQAGDSLRLSCAASGRTFSSYSMGWFRQAQGKEREFVVAISSSGNYKYDSVSLEGRFTISRDNTKNTVYLQINSLKPKDTAVYYCAASRAYGSSRLRLGDTYDYWGQGTQVTVSS
notes: periplasmic extract
[1]
  Binding level (RU): 198 RU
[2]
  % fast: 29%

B16: VEGFBII42A05 (VHH)
VHH: EVQLVESGGGLVQPGDSLKLSCAFSGRTFSSYSMGWFRQAQGKEREFVVAISSSGGYIYDSVSLEGRFTISRDNTKNTVYLQMPSLKPEDTADYYCAASRAYGSSRLRLADTYDYWGQGTQVTVSS
notes: periplasmic extract
[1]
  Binding level (RU): 118 RU
[2]
  % fast: 25%

B17: VEGFBII62D10 (VHH)
VHH: EVQLVESEGGLVQAGDSLRLSCAASGRTFSSYSMGWFRQAQGKEREFVVAISSSGNYKYDSVSLEGRFTISRDNTKNTVYLQINSLKPEDTAVYYCAASRAYGSSRLRLGDTYDYWGQGTQVTVSS
notes: periplasmic extract
[1]
  Binding level (RU): 94 RU
[2]
  % fast: 40%

B18: VEGFBII60A09 (VHH)
VHH: EVQLVESGGGLVQPGDSLKLSCAFSGRTFSSYSMGWFRQAQGKEREFVVAISSSGGYIYDSVSLEGRFTISRDNTRNTVYLQTPSLKPEDTADYYCAASRAYGSSRLRLADTYDYWGQGTQVTVSS
notes: periplasmic extract
[1]
  Binding level (RU): 106 RU
[2]
  % fast: 20%

B19: VEGFBII62A09 (VHH)
VHH: EVQLVESGGDLVQPGDSLKLSCAASGRTFSSYSMGWFRQAQGKEREFVVAISSSGGYIYDSVSLEGRFTISRDNTKNTVYLQTPSLKPEDTAVYYCAASRAYGSSRLRLADTYDYWGQGTQVTVSS
notes: periplasmic extract
[1]
  Binding level (RU): 84 RU
[2]
  % fast: 23%

B20: VEGFBII22B06 (VHH)
VHH: EVQLVESGGGLVQPGDSLKLSCAASGRTFSSYSMGWFRQAQGKEREFVVAISSSGGYIYDSVSLEGRFTISRDNTKNTVYLQTPSLKPEDTAVYYCAASRAYGSSRLRLADTYDYWGQGTQVTVSS
notes: periplasmic extract
[1]
  Binding level (RU): 168 RU
[2]
  % fast: 23%

B21: VEGFBII23F11 (VHH)
VHH: EVQLVESGGGLVQPGDSLKLSCAFSGRTFSSYSMGWFRQAQGKEREFVVAISSGGGYIYDSVSLEGRFTISRDNTKNTVYLQTPSLKPEDTADYYCAASRAYGSSRLRLADTYDYWGQGTQVTVSS
notes: periplasmic extract
[1]
  Binding level (RU): 134 RU
[2]
  % fast: 22%

B22: VEGFBII30E07 (VHH)
VHH: EVQLVESGGGLVQAGDSLRLSCAASGRTFSSYSMGWFRQAQGKEREFVVAISSSGNYKYDSVSLEGRFTISRDNTKNTVYLQINSLKPEDTAVYYCAASRAYGSSRLRLGDTYDYWGQGTRVTVSS
notes: periplasmic extract
[1]
  Binding level (RU): 226 RU
[2]
  % fast: 29%

B23: VEGFBII22B07 (VHH)
VHH: EVQLVESGGGLVQAGDSLRLSCAASGRTFSSYSMGWFRQAQGKEREFVVAISSSGNYKYDSVSLEGRFTISRDNTKNTVYLQINSLKPEDTAVYYCAASRAYGSSRLRLGDTYDYWGQGTQVTVSS
notes: periplasmic extract
[1]
  Binding level (RU): 328 RU
[2]
  % fast: 31%

B24: VEGFBII111D05 (VHH)
VHH: EVQLVESGGGLVQTGGSLRLSCEASGRTFSSYSMGWFRQAPGKEREFVVAISKGGYKYDSVSLEGRFTISRDNAKNTVYLQINSLRPEDTAVYYCASSRAYGSSRLRLADTYEYWGQGTLVTVSS
[3]
  % inhibition: 100%
  IC50: 0.209 nM

B25: VEGFBII113E03 (VHH)
VHH: EVQLVESGGGLVQTGDSLRLSCEVSGRTFSSYSMGWFRQAQGKEREFVVAISKGGYKYDSVSLEGRFTISKDNAKNTVYLQMNSLRPEDTAVYYCASSRAYGSSRLRLADTYEYWGQGTLVTVSS
[3]
  % inhibition: 100%
  IC50: 0.29 nM

B26: VEGFBII111G06 (VHH)
VHH: EVQLVESGGGLVQPGGSLRLSCAASGRTFSSYSMGWFRQAPGKEREFVVAISKGGYKYDSVSLEGRFTISRDNAKNTVYLQMNSLRPEDTAVYYCASSRAYGSSRLRLADTYEYWGQGTLVTVSS
[3]
  % inhibition: 100%
  IC50: 0.366 nM

B27: VEGFBII112D11 (VHH)
VHH: EVQLVESGGGLVQPGGSLRLSCEASGRTFSSYSMGWFRQAPGKEREFVVAISKGGYKYDSVSLEGRFTISRDNAKNTVYLQINSLRPEDTAVYYCASSRAYGSSRLRLADTYEYWGQGTLVTVSS
[3]
  % inhibition: 100%
  IC50: 0.221 nM

B28: VEGFBII113A08 (VHH)
VHH: EVQLVESGGGLVQTGGSLRLSCEVSGRTFSSYSMGWFRQAPGKEREFVVAISKGGYKYDSVSLEGRFTISKDNAKNTVYLQINSLRPEDTAVYYCASSRAYGSSRLRLADTYEYWGQGTLVTVSS
[3]
  % inhibition: 100%
  IC50: 0.253 nM
